Among the data in the supplement of paper PMC10219994 are ligation selection enrichment values, retold here.

Sequences and labels used below:
B1: library; a variant is named by its letters at N, in order (parent)
chain: GAGACCGCAACTGAAAAGTTGTGGNNNNNATAGTGAGTCGCTGCCTGCAAAGACACAACT

± gives the standard deviation of the averaged measurements.

The data set covers variants of B1. The experiment in a line: ligation selection enrichment (abundance after / before one-round selection) (fold); higher = more template-directed ligation activity. As to conditions: with T7Psub CACGGAUGCUAAUACGACUCACUAUA; MgCl2 25 mM; 42 °C; 4 h; pH 8.5. As to the method: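 Lib-N5 ligase ribozyme library: five randomized core nucleotides (including the GGA motif of N8-1) within the fixed N8-1 ribozyme flanks, transcribed by T7 RNA polymerase with a 5'-triphosphate. The library (0.75 uM) was reacted with substrate T7Psub (6 uM) in 50 mM EPPS pH 8.5 with 25 mM MgCl2 at 42 C for 4 h. Ligated products were PAGE-purified, reverse transcribed and MiSeq sequenced; enrichment = abundance after selection / abundance before selection, with two independent replicates. The full transcript is built from the printed template flanks.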
Turning to GAGACCGCAACTGAAAAGTTGTGGTAAGGATAGTGAGTCGCTGCCTGCAAAGACACAACT, the ligation selection enrichment came to 0.733 ± 0.15.

Regarding GAGACCGCAACTGAAAAGTTGTGGTAAGTATAGTGAGTCGCTGCCTGCAAAGACACAACT, the ligation selection enrichment is 0.0779 ± 0.028.

For the variant GAGACCGCAACTGAAAAGTTGTGGTAAGCATAGTGAGTCGCTGCCTGCAAAGACACAACT, the ligation selection enrichment is 0.165 ± 0.016.

On to GAGACCGCAACTGAAAAGTTGTGGTAAGAATAGTGAGTCGCTGCCTGCAAAGACACAACT, for which the ligation selection enrichment turned out to be 0.977 ± 0.16.

On to GAGACCGCAACTGAAAAGTTGTGGTAATAATAGTGAGTCGCTGCCTGCAAAGACACAACT, for which the ligation selection enrichment is 0.189 ± 0.0088.

With GAGACCGCAACTGAAAAGTTGTGGTAATCATAGTGAGTCGCTGCCTGCAAAGACACAACT, the ligation selection enrichment amounted to 0.111 ± 0.048.

As for GAGACCGCAACTGAAAAGTTGTGGTAATTATAGTGAGTCGCTGCCTGCAAAGACACAACT, the ligation selection enrichment was 0.211 ± 0.098.

For the variant GAGACCGCAACTGAAAAGTTGTGGTAATGATAGTGAGTCGCTGCCTGCAAAGACACAACT, the ligation selection enrichment came out at 1.16 ± 0.27.

Consider GAGACCGCAACTGAAAAGTTGTGGAAACAATAGTGAGTCGCTGCCTGCAAAGACACAACT, for which the ligation selection enrichment was 0.177 ± 0.013.

On to GAGACCGCAACTGAAAAGTTGTGGAAACCATAGTGAGTCGCTGCCTGCAAAGACACAACT, for which the ligation selection enrichment is 0.196 ± 0.0049.

For the variant GAGACCGCAACTGAAAAGTTGTGGAAACTATAGTGAGTCGCTGCCTGCAAAGACACAACT, the ligation selection enrichment came out at 1.21 ± 0.29.

Regarding GAGACCGCAACTGAAAAGTTGTGGAAACGATAGTGAGTCGCTGCCTGCAAAGACACAACT, the ligation selection enrichment was 0.742 ± 0.064.

Turning to GAGACCGCAACTGAAAAGTTGTGGCAACTATAGTGAGTCGCTGCCTGCAAAGACACAACT, the ligation selection enrichment came to 0.615 ± 0.11.

With GAGACCGCAACTGAAAAGTTGTGGCAACAATAGTGAGTCGCTGCCTGCAAAGACACAACT, the ligation selection enrichment came out at 0.1345 ± 0.00036.

GAGACCGCAACTGAAAAGTTGTGGCAACGATAGTGAGTCGCTGCCTGCAAAGACACAACT: the ligation selection enrichment turned out to be 0.449 ± 0.066.

For the variant GAGACCGCAACTGAAAAGTTGTGGCAACCATAGTGAGTCGCTGCCTGCAAAGACACAACT, the ligation selection enrichment was found to be 0.126 ± 0.0056.

For GAGACCGCAACTGAAAAGTTGTGGGAATGATAGTGAGTCGCTGCCTGCAAAGACACAACT, the ligation selection enrichment is 0.478 ± 0.011.

In the case of GAGACCGCAACTGAAAAGTTGTGGGAATCATAGTGAGTCGCTGCCTGCAAAGACACAACT, the ligation selection enrichment amounted to 0.205 ± 0.079.

As for GAGACCGCAACTGAAAAGTTGTGGGAATTATAGTGAGTCGCTGCCTGCAAAGACACAACT, the ligation selection enrichment worked out at 0.249 ± 0.099.

Consider GAGACCGCAACTGAAAAGTTGTGGGAATAATAGTGAGTCGCTGCCTGCAAAGACACAACT, for which the ligation selection enrichment came out at 0.175 ± 0.0089.

As for GAGACCGCAACTGAAAAGTTGTGGTACAAATAGTGAGTCGCTGCCTGCAAAGACACAACT, the ligation selection enrichment came to 0.211 ± 0.08.

For the variant GAGACCGCAACTGAAAAGTTGTGGTACATATAGTGAGTCGCTGCCTGCAAAGACACAACT, the ligation selection enrichment turned out to be 0.578 ± 0.12.

GAGACCGCAACTGAAAAGTTGTGGTACAGATAGTGAGTCGCTGCCTGCAAAGACACAACT: the ligation selection enrichment stood at 0.393 ± 0.092.

On to GAGACCGCAACTGAAAAGTTGTGGTACACATAGTGAGTCGCTGCCTGCAAAGACACAACT, for which the ligation selection enrichment stood at 0.139 ± 0.042.

GAGACCGCAACTGAAAAGTTGTGGGACCAATAGTGAGTCGCTGCCTGCAAAGACACAACT: the ligation selection enrichment amounted to 0.239 ± 0.067.

On to GAGACCGCAACTGAAAAGTTGTGGGACCCATAGTGAGTCGCTGCCTGCAAAGACACAACT, for which the ligation selection enrichment was found to be 0.238 ± 0.057.

With GAGACCGCAACTGAAAAGTTGTGGGACCGATAGTGAGTCGCTGCCTGCAAAGACACAACT, the ligation selection enrichment came out at 0.8601 ± 0.0032.

With GAGACCGCAACTGAAAAGTTGTGGGAAGTATAGTGAGTCGCTGCCTGCAAAGACACAACT, the ligation selection enrichment turned out to be 0.121 ± 0.06.

GAGACCGCAACTGAAAAGTTGTGGGAAGAATAGTGAGTCGCTGCCTGCAAAGACACAACT: the ligation selection enrichment is 0.306 ± 0.024.

On to GAGACCGCAACTGAAAAGTTGTGGGAAGGATAGTGAGTCGCTGCCTGCAAAGACACAACT, for which the ligation selection enrichment stood at 0.571 ± 0.21.

Take GAGACCGCAACTGAAAAGTTGTGGGAAGCATAGTGAGTCGCTGCCTGCAAAGACACAACT: the ligation selection enrichment worked out at 0.167 ± 0.033.

GAGACCGCAACTGAAAAGTTGTGGCAAGTATAGTGAGTCGCTGCCTGCAAAGACACAACT: the ligation selection enrichment came to 0.157 ± 0.079.

Consider GAGACCGCAACTGAAAAGTTGTGGCAAGAATAGTGAGTCGCTGCCTGCAAAGACACAACT, for which the ligation selection enrichment turned out to be 0.182 ± 0.036.

As for GAGACCGCAACTGAAAAGTTGTGGCAAGCATAGTGAGTCGCTGCCTGCAAAGACACAACT, the ligation selection enrichment came out at 0.137 ± 0.042.

Turning to GAGACCGCAACTGAAAAGTTGTGGCAAGGATAGTGAGTCGCTGCCTGCAAAGACACAACT, the ligation selection enrichment amounted to 0.2 ± 0.024.

Regarding GAGACCGCAACTGAAAAGTTGTGGCAAATATAGTGAGTCGCTGCCTGCAAAGACACAACT, the ligation selection enrichment was determined as 0.595 ± 0.18.

GAGACCGCAACTGAAAAGTTGTGGCAAAAATAGTGAGTCGCTGCCTGCAAAGACACAACT: the ligation selection enrichment turned out to be 0.131 ± 0.011.

With GAGACCGCAACTGAAAAGTTGTGGCAAACATAGTGAGTCGCTGCCTGCAAAGACACAACT, the ligation selection enrichment came to 0.135 ± 0.028.

In the case of GAGACCGCAACTGAAAAGTTGTGGCAAAGATAGTGAGTCGCTGCCTGCAAAGACACAACT, the ligation selection enrichment is 0.162 ± 0.03.

Regarding GAGACCGCAACTGAAAAGTTGTGGAAAAAATAGTGAGTCGCTGCCTGCAAAGACACAACT, the ligation selection enrichment was determined as 0.191 ± 0.076.

For the variant GAGACCGCAACTGAAAAGTTGTGGAAAACATAGTGAGTCGCTGCCTGCAAAGACACAACT, the ligation selection enrichment is 0.17 ± 0.018.

As to GAGACCGCAACTGAAAAGTTGTGGAAAAGATAGTGAGTCGCTGCCTGCAAAGACACAACT, the ligation selection enrichment stood at 0.226 ± 0.025.

For the variant GAGACCGCAACTGAAAAGTTGTGGAAAATATAGTGAGTCGCTGCCTGCAAAGACACAACT, the ligation selection enrichment was found to be 0.461 ± 0.12.

Take GAGACCGCAACTGAAAAGTTGTGGAAAGTATAGTGAGTCGCTGCCTGCAAAGACACAACT: the ligation selection enrichment came out at 0.147 ± 0.088.
